Data on one substance can be found in publication PMC1762419.

The target in the assay is endogenous Maf1 (human (endogenous in HeLa)) (UniProt Q9H063). As to the kind of experiment: co-IP; HeLa (cell line 9-8) whole cell extract, immunoprecipitation with anti-Maf1 or anti-GAPDH antibodies; immunoblot with anti-RPC1, anti-Brf1, anti-Maf1.
endogenous Maf1 (human (endogenous in HeLa)), sequence (Q9H063 whole entry): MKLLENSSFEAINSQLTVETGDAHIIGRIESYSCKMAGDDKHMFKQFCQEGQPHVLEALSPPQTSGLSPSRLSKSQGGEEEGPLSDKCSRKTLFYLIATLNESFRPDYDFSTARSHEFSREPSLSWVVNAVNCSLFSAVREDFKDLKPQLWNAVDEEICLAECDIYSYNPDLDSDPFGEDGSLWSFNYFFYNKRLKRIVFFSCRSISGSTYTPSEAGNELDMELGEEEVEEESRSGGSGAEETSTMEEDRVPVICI

With “RPC1, the largest subunit of pol III (endogenous, HeLa) (from UniProt O14802 1-1390) (natural protein)”, the percent of RPC1 co-immunoprecipitated was 6%.
